From patent US20170152300A1 (CSL, published 2017)
Several values for one entry are separate records, joined by “and”; a condition that tells them apart may be missing. Equal entries are not always repeated.

T1: recombinant Factor VIII (as described in Zollner et al 2013) (Homo sapiens (Human), UniProt P00451 20-2351)
T1 construct: also called FVIII
T1 sequence: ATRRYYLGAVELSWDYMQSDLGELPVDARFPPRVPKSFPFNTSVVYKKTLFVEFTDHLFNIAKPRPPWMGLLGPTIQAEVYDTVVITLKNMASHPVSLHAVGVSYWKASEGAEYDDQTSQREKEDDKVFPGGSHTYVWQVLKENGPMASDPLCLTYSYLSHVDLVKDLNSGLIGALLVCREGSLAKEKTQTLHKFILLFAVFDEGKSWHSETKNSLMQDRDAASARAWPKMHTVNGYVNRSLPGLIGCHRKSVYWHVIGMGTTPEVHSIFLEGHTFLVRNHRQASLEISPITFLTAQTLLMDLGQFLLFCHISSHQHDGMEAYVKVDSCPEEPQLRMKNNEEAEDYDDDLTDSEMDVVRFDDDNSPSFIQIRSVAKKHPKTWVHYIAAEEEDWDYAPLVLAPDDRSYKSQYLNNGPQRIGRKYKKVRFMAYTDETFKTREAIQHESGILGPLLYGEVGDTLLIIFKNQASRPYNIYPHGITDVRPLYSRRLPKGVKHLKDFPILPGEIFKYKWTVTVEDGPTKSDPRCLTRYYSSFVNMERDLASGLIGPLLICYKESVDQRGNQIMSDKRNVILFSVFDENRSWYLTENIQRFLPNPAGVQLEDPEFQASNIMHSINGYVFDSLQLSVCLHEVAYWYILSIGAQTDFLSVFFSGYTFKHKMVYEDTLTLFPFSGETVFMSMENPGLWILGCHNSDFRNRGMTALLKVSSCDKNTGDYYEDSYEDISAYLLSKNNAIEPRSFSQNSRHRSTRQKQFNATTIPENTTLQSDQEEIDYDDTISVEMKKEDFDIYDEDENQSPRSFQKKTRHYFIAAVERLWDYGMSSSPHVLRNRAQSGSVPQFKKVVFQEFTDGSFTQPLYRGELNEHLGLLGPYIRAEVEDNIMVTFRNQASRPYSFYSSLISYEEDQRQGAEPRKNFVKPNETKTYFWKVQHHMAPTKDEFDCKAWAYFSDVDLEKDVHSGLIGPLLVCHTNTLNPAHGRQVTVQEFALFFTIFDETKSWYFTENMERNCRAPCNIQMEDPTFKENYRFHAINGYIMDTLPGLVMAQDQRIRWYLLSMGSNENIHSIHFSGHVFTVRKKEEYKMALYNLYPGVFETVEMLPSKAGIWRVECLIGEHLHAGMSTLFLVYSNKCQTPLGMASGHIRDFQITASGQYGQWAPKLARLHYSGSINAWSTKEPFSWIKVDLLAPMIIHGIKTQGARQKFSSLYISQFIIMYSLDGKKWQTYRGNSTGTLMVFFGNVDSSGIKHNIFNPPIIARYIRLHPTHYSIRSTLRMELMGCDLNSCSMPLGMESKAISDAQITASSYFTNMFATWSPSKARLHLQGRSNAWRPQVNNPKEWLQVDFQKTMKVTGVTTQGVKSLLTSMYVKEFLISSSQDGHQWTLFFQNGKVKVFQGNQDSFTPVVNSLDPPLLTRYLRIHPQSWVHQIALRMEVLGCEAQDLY


Assays:
[1] = biological target: recombinant Factor VIII (as described in Zollner et al 2013) (Homo sapiens (Human)) (UniProt P00451); assay: SPR, anti-His capture
[2] = biological target: T1, recombinant Factor VIII (as described …); assay: SPR, anti-His capture
Experimental: Binding kinetics were investigated by surface plasmon resonance using a Biacore 4000 biosensor at 37° C. Each mutant was captured from cell culture medium to a density of 40-150RU on a CM-5 sensor chip pre-immobilised with anti-His antibody (14,000 RU). In an initial screening study, FVIII was injected over the captured mutants for 5 minutes at 1 nM and dissociation monitored for 5 minutes.
All sensorgrams were double referenced by subtraction of signals from a reference spot (containing only immobilised anti His antibody) and from a blank injection. Binding kinetics were determined by fitting the double referenced sensorgrams to a 1:1 kinetic model.

Kd [1] | koff [1] | kon [1] | fold decrease in off-rate vs wild type [2] | fold increase in affinity vs wild type [2] | Molecule
0.255 nM and 0.199 nM | 0.00159 s⁻¹ and 0.0025 s⁻¹ | 6.23e+06 M⁻¹ s⁻¹ and 1.25e+07 M⁻¹ s⁻¹ | – | – | Hu-vWF[764-1270]-8His dupS764/S764P/S766I
– | – | – | 22 fold | 30 fold | Hu-vWF[764-1270]-8His S764P-S766I (other) PLICRPPMVKLVCPADNLRAEGLECTKTCQNYDLECMSMGCVSGCLCPPGMVRHENRCVALERCPCFHQGKEYAPGETVKIGCNTCVCRDRKWNCTDHVCDATCSTIGMAHYLTFDGLKYLFPGECQYVLVQDYCGSNPGTFRILVGNKGCSHPSVKCKKRVTILVEGGEIELFDGEVNVKRPMKDETHFEVVESGRYIILLLGKALSVVWDRHLSISVVLKQTYQEKVCGLCGNFDGIQNNDLTSSNLQVEEDPVDFGNSWKVSSQCADTRKVPLDSSPATCHNNIMKQTMVDSSCRILTSDVFQDCNKLVDPEPYLDVCIYDTCSCESIGDCACFCDTIAAYAHVCAQHGKVVTWRTATLCPQSCEERNLRENGYECEWRYNSCAPACQVTCQHPEPLACPVQCVEGCHAHCPPGKILDELLQTCVDPEDCPVCEVAGRRFASGKKVTLNPSDPEHCQICHCDVVNLTCEACQEPGGLVVPPTDAPVSPTTLYVEDISEPPLHDFHHHHHHHH
